Assay results as given in patent US20220259593A1, “CONTROL OF MAMMALIAN GENE DOSAGE USING CRISPR” (The Regents of the University of California, priority 2019, published 2022).
Numbering of substitutions follows the chain as printed.

B1: cr101 (nucleic acid)
guide: GTTTAAGAGCTAAGCTGGAAACAGCATAGCAAGTTTAAATAAGGCTAGTCCGTTATCAACTTGAAAAAGTGGCGCCGAGTCGGTGCT
modifications: listed as DNA, chemistry not fully specified
B2: cr183 (nucleic acid)
guide: B1 guide with C45T, G48A, A65G, G74A
modifications: listed as DNA, chemistry not fully specified
B3: cr005 (nucleic acid)
guide: B1 guide with T2C, G74A
modifications: listed as DNA, chemistry not fully specified
B4: cr765 (nucleic acid)
guide: B1 guide with T62G, A67C, G74A, C76T, G77C, C81G, G82A
modifications: listed as DNA, chemistry not fully specified
B5: cr190 (nucleic acid)
guide: B1 guide with T54A, C57T, G74A, T80A
modifications: listed as DNA, chemistry not fully specified
B6: cr824 (nucleic acid)
guide: B1 guide with A65C, G74A, T80G
modifications: listed as DNA, chemistry not fully specified
B7: cr175 (nucleic acid)
guide: B1 guide with A58C, G74A
modifications: listed as DNA, chemistry not fully specified
B8: cr659 (nucleic acid)
guide: B1 guide with A38C, G74A
modifications: listed as DNA, chemistry not fully specified
B9: cr530 (nucleic acid)
guide: B1 guide with T49C, T53A, A66C, G74A
modifications: listed as DNA, chemistry not fully specified
B10: cr611 (nucleic acid)
guide: B1 guide with T56G, C57A, G74A, G79A
modifications: listed as DNA, chemistry not fully specified
B11: cr317 (nucleic acid)
guide: B1 guide with A42T, G74A
modifications: listed as DNA, chemistry not fully specified
B12: cr255 (nucleic acid)
guide: B1 guide with T34C, C73G, G74A, G85C
modifications: listed as DNA, chemistry not fully specified
B13: cr620 (nucleic acid)
guide: B1 guide with C45G, G48C, C73A, G74A, C76T, G82A, G85T
modifications: listed as DNA, chemistry not fully specified
B14: cr675 (nucleic acid)
guide: B1 guide with T34C, A59C, T70G, G74A
modifications: listed as DNA, chemistry not fully specified
B15: cr016 (nucleic acid)
guide: B1 guide with A6T, G74A
modifications: listed as DNA, chemistry not fully specified
B16: cr120 (nucleic acid)
guide: B1 guide with A65G, G74A, G77C, C81G
modifications: listed as DNA, chemistry not fully specified

The molecules below were run on K562 CRISPRi cells (assay: Constant region variant library pooled growth screen, K562). Conditions: sgRNA constant region variants; activity relative to the original, un-modified constant region cr995.
Type: cell-based, human
Procedure, shortened: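 Pooled library transduced into K562 CRISPRi cells in duplicate, puromycin-selected, grown at >2000× coverage and sampled after 4 to 8 days. Phenotypes per targeting sequence:constant region pair were normalized to the unmodified-scaffold pairing to give relative activity.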

Row | Molecule | Mean relative activity
1 | B1 | 1.048
2 | B2 | 1.047

Same assay, conditions: sgRNA constant region variants; relative to the original, un-modified constant region cr995; CRISPRi

Row | Molecule | Mean relative activity
3 | B3 | 0.5108
4 | B4 | 0.4931
5 | B5 | 0.5036
6 | B6 | 0.499
7 | B7 | 0.4914
8 | B8 | 0.504
9 | B9 | 0.4998
10 | B10 | 0.4954
11 | B11 | 0.5027
12 | B12 | 0.5097
13 | B13 | 0.4842
14 | B14 | 0.5084
15 | B15 | 0.4876
16 | B16 | 0.5005
